Measurements as given in patent EP0656117B1.

What was measured:
[1] = target: interleukin 6 receptor gp 80 (soluble Human Recombinant IL-6R) (human) (UniProt P08887); assay: receptor binding assay, format not described; protein from bacterial periplasm
[2] = target: interleukin 6 receptor gp 80 (soluble Human Recombinant IL-6R) (human) (UniProt P08887); assay: receptor binding assay, format not described
[3] = target: interleukin 6 receptor gp 80 (soluble Human Recombinant IL-6R) (human) (UniProt P08887); assay: cell-based or functional assay
[4] = target: interleukin 6 receptor gp 80 (soluble Human Recombinant IL-6R) (human) (UniProt P08887); assay: recovery of particles from balls coated with receptor, elution pH 3.6
[5] = target: interleukin 6 receptor gp 80 (soluble Human Recombinant IL-6R) (human) (UniProt P08887); assay: panning of a 1:1 mixture of 176 Arg and 179 Ala phasmids on receptor in solid phase, elution pH 3.6
[6] = target: interleukin 6 receptor gp 80 (soluble Human Recombinant IL-6R) (human) (UniProt P08887); assay: panning of a 1:100 mixture with M13K07 on polystyrene balls coated with shrIL-6R, elution pH 3.6 (eluate 1:10)

UniProt P08887, sequence (P08887 20-355 limits assumed): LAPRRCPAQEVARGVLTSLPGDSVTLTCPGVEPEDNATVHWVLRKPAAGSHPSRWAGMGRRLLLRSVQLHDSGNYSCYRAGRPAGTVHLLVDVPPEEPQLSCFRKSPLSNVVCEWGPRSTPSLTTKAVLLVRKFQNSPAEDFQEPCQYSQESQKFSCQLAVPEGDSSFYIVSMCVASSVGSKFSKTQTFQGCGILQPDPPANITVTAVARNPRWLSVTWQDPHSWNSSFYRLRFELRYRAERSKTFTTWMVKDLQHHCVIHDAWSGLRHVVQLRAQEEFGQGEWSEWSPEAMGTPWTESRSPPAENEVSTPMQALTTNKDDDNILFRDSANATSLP

interleukin 6 helix D mutant of phage 5-3 (175 Ile, 181 Val, 183 His) (from UniProt P05231 29-212) (ligand)
Receptor binding (%) [1]: 80%

interleukin 6 helix A and C mutant 31 Asp / 35 Phe / 118 Arg / 121 Val (from UniProt P05231 29-212) (ligand)
Receptor binding (% of wild type) [2]: 66%

interleukin 6 mutant Gln175Ile/Gln183Ala (phage 5-2) (from UniProt P05231 29-212) (ligand)
Receptor binding (%) [1]: 260%

interleukin 6 helix C mutant 118 Ser / 121 Asp (from UniProt P05231 29-212) (ligand)
Receptor binding (% of wild type) [2]: 78%

interleukin 6 mutant Gln175Ile/Ser176Arg/Gln183Ala (from UniProt P05231 29-212) (ligand)
Receptor binding (%) [1]: 450%

interleukin 6 helix D mutant of phage 4-8 (181 Ile, 183 Asn) (from UniProt P05231 29-212) (ligand)
Receptor binding (%) [1]: 100%

IL-6 Ser118Arg/Val121Asp (from UniProt P05231 29-212) (ligand)
Receptor binding (% of wild type) [2]: 66%

interleukin 6 helix D mutant of phage 5-8 (183 Ala) (from UniProt P05231 29-212) (ligand)
Receptor binding (%) [1]: 240%

interleukin 6 helix C mutant 118 Leu / 121 Asp (from UniProt P05231 29-212) (ligand)
Receptor binding (% of wild type) [2]: 92%

IL-6 Tyr31Asp/Gly35Phe/Ser118Phe/Val121Asp (from UniProt P05231 29-212) (ligand)
Inhibition of wild type interleukin 6 activity (growth of XG-1 human myeloma cells, wild type IL-6 0.1 ng/ml) at antagonist 3.3 ng/ml [3]: 0% | Inhibition of wild type interleukin 6 activity (growth of XG-1 human myeloma cells, wild type IL-6 0.1 ng/ml) at antagonist 10 ng/ml [3]: 7% | Inhibition of wild type interleukin 6 activity (growth of XG-1 human myeloma cells, wild type IL-6 0.1 ng/ml) at antagonist 30 ng/ml [3]: 18% | Inhibition of wild type interleukin 6 activity (growth of XG-1 human myeloma cells, wild type IL-6 0.1 ng/ml) at antagonist 90 ng/ml [3]: 35% | Inhibition of wild type interleukin 6 activity (growth of XG-1 human myeloma cells, wild type IL-6 0.1 ng/ml) at antagonist 270 ng/ml [3]: 59% | Inhibition of wild type interleukin 6 activity (growth of XG-1 human myeloma cells, wild type IL-6 0.1 ng/ml) at antagonist 810 ng/ml [3]: 84% | Inhibition of wild type interleukin 6 activity (growth of XG-1 human myeloma cells, wild type IL-6 0.1 ng/ml) at antagonist 2430 ng/ml [3]: 90% | Inhibition of wild type interleukin 6 activity (growth of XG-1 human myeloma cells, wild type IL-6 0.1 ng/ml) at antagonist 7290 ng/ml [3]: 95% | Receptor binding (% of wild type) [2]: 76%

IL-6 Tyr31Asp/Gly35Phe/Ser118Leu/Val121Asp (from UniProt P05231 29-212) (ligand)
Inhibition of wild type interleukin 6 activity (growth of XG-1 human myeloma cells, wild type IL-6 0.1 ng/ml) at antagonist 3.3 ng/ml [3]: 0% | Inhibition of wild type interleukin 6 activity (growth of XG-1 human myeloma cells, wild type IL-6 0.1 ng/ml) at antagonist 10 ng/ml [3]: 3% | Inhibition of wild type interleukin 6 activity (growth of XG-1 human myeloma cells, wild type IL-6 0.1 ng/ml) at antagonist 30 ng/ml [3]: 10% | Inhibition of wild type interleukin 6 activity (growth of XG-1 human myeloma cells, wild type IL-6 0.1 ng/ml) at antagonist 90 ng/ml [3]: 31% | Inhibition of wild type interleukin 6 activity (growth of XG-1 human myeloma cells, wild type IL-6 0.1 ng/ml) at antagonist 270 ng/ml [3]: 53% | Inhibition of wild type interleukin 6 activity (growth of XG-1 human myeloma cells, wild type IL-6 0.1 ng/ml) at antagonist 810 ng/ml [3]: 71% | Inhibition of wild type interleukin 6 activity (growth of XG-1 human myeloma cells, wild type IL-6 0.1 ng/ml) at antagonist 2430 ng/ml [3]: 76% | Inhibition of wild type interleukin 6 activity (growth of XG-1 human myeloma cells, wild type IL-6 0.1 ng/ml) at antagonist 7290 ng/ml [3]: 81% | Receptor binding (% of wild type) [2]: 63%

SAnt 1 (interleukin 6 Tyr31Asp/Gly35Phe/Ser118Arg/Val121Asp/Gln175Ile/Ser176Arg/Gln183Ala) (from UniProt P05231 29-212) (ligand)
50% inhibition of interleukin 6 activity on hepatoma cells Hep3B (wild type IL-6 4 ng/ml) [3]: 19 ng/mL | 50% inhibition of interleukin 6 activity on hepatoma cells HepG2 (wild type IL-6 4 ng/ml) [3]: 32 ng/mL | 50% inhibition of interleukin 6 activity on myeloma cells XG-1 (wild type IL-6 0.1 ng/ml) [3]: 22 ng/mL | Receptor binding (% of wt) [2]: 406%

M13K07 helper bacteriophage particles
particles recovered relative to phasmid hIL-6 [4]: 0.18 relative

interleukin 6 helix D mutant of phage 5-4 (183 Tyr) (from UniProt P05231 29-212) (ligand)
Receptor binding (%) [1]: 240%

176 Arg phasmid (hIL-6 mutant 176 Arg shown on phasmid) (from UniProt P05231 30-212)
particles recovered relative to phasmid hIL-6 [4]: 3 relative | ratio of particles in the eluate against 179 Ala phasmid [5]: 15 ratio (to 1)

wild type human interleukin 6 (from UniProt P05231 30-212) (ligand)
Receptor binding (%) [1]: 100% | Receptor binding (% of wild type) [2]: 100%

hIL-6 phasmid (phage particle with hIL6-pIII fusion molecules) (from UniProt P05231 30-212)
particles recovered relative to phasmid hIL-6 [4]: 1 relative | enrichment with respect to M13K07 [6]: 10 fold

179 Ala phasmid (hIL-6 mutant 179 Ala shown on phasmid) (from UniProt P05231 29-212)
particles recovered relative to phasmid hIL-6 [4]: 0.2 relative

IL-6 Tyr31Asp/Gly35Phe/Ser118Arg/Val121Asp (from UniProt P05231 29-212) (ligand)
50% inhibition of interleukin 6 activity on hepatoma cells Hep3B (wild type IL-6 4 ng/ml) [3]: 164 ng/mL | 50% inhibition of interleukin 6 activity on hepatoma cells HepG2 (wild type IL-6 4 ng/ml) [3]: 132 ng/mL | 50% inhibition of interleukin 6 activity on myeloma cells XG-1 (wild type IL-6 0.1 ng/ml) [3]: 190 ng/mL | Inhibition of wild IL-6 (%) on human hepatoma cells (wild IL-6 4 ng/ml) at antagonist 16 ng/ml (4 X molar excess, 0.7 nM) [3]: 23% | Inhibition of wild IL-6 (%) on human hepatoma cells (wild IL-6 4 ng/ml) at antagonist 60 ng/ml (15 X molar excess, 2.7 nM) [3]: 28% | Inhibition of wild IL-6 (%) on human hepatoma cells (wild IL-6 4 ng/ml) at antagonist 164 ng/ml (41 X molar excess, 7.5 nM) [3]: 50% | Inhibition of wild IL-6 (%) on human hepatoma cells (wild IL-6 4 ng/ml) at antagonist 500 ng/ml (125 X molar excess, 22.7 nM) [3]: 75% | Inhibition of wild IL-6 (%) on human hepatoma cells (wild IL-6 4 ng/ml) at antagonist 1000 ng/ml (250 X molar excess, 45.5 nM) [3]: 82% | Inhibition of wild IL-6 (%) on human hepatoma cells (wild IL-6 4 ng/ml) at antagonist 2000 ng/ml (500 X molar excess, 90.0 nM) [3]: 90% | Inhibition of wild IL-6 (%) on human hepatoma cells (wild IL-6 4 ng/ml) at antagonist 4000 ng/ml (1000 X molar excess, 181.8 nM) [3]: 96% | Inhibition of wild type interleukin 6 activity (growth of XG-1 human myeloma cells, wild type IL-6 0.1 ng/ml) at antagonist 3.3 ng/ml [3]: 6% | Inhibition of wild type interleukin 6 activity (growth of XG-1 human myeloma cells, wild type IL-6 0.1 ng/ml) at antagonist 10 ng/ml [3]: 12% | Inhibition of wild type interleukin 6 activity (growth of XG-1 human myeloma cells, wild type IL-6 0.1 ng/ml) at antagonist 30 ng/ml [3]: 25% | Inhibition of wild type interleukin 6 activity (growth of XG-1 human myeloma cells, wild type IL-6 0.1 ng/ml) at antagonist 90 ng/ml [3]: 42% | Inhibition of wild type interleukin 6 activity (growth of XG-1 human myeloma cells, wild type IL-6 0.1 ng/ml) at antagonist 270 ng/ml [3]: 64% | Inhibition of wild type interleukin 6 activity (growth of XG-1 human myeloma cells, wild type IL-6 0.1 ng/ml) at antagonist 810 ng/ml [3]: 84% | Inhibition of wild type interleukin 6 activity (growth of XG-1 human myeloma cells, wild type IL-6 0.1 ng/ml) at antagonist 2430 ng/ml [3]: 90% | Inhibition of wild type interleukin 6 activity (growth of XG-1 human myeloma cells, wild type IL-6 0.1 ng/ml) at antagonist 7290 ng/ml [3]: 93% | Receptor binding (% of wild type) [2]: 97% | Receptor binding (% of wt) [2]: 97%

interleukin 6 helix C mutant 118 Arg / 121 Val (from UniProt P05231 29-212) (ligand)
Receptor binding (% of wild type) [2]: 81%
